System: T1, CC(C)(COP(=O)(O)OP(=O)(O)OC[C@H]1O[C@@H](n2cnc3c(N)ncnc32)[C@H](O)[C@@H]1OP(=O)(O)O)[C@@H](O)C(=O)NCCC(=O)NCCSC(=O)CCCCCCCCCCCCCCCNc1ccc([N+](=O)[O-])c2nonc12
T1 construct: full length, HA tag kept (pEF-Bos-HA), HEK293 membrane fraction
Experiment: auto-S-palmitoylation of HEK293 membranes, SDS-PAGE fluorescence normalised to tag Western blot
Format: cell-based, Mus musculus
Settings: pH 7.4, 37 °C, labelled compound, covalent thioester at active-site Cys

Chain of mouse zDHHC17 (Mus musculus) (chain, as listed by the source): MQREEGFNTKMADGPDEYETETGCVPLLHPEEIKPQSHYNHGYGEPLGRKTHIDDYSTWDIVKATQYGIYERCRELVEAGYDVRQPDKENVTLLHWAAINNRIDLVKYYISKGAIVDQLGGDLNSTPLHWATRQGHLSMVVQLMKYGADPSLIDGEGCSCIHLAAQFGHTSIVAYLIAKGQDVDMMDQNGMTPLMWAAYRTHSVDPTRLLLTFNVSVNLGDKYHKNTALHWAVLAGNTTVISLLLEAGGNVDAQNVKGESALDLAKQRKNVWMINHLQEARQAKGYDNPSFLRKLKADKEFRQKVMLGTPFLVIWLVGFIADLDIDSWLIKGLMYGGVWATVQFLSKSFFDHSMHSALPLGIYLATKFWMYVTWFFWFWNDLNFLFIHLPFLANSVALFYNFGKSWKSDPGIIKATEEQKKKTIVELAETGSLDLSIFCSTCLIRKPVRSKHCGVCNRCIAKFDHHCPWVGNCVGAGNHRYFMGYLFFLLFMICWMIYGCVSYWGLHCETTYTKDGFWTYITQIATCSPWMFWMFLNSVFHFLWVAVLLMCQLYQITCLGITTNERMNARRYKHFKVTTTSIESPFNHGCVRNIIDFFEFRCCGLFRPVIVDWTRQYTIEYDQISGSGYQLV

For mouse zDHHC17 (Mus musculus), the Km was 6.20 ± 1.20 µM.

— article PMC11870023, “A facile assay for zDHHC palmitoyl transferase activation elucidates effects of mutation and modification” (Journal of Lipid Research, 2025)
